Results: US7067277B1, “Chimeric G proteins and uses thereof” (H. Lundbeck A/S, priority 1999, dated 2006)

Tests used:
Test in all cases: Calcium mobilization (FLIPR, Fluo-3) in transfected COS-7 cells
Format in all cases: cell-based
h Y5 = target: T1, h Y5 (Homo sapiens, UniProt Q15761); details: h Y5 + chimera in COS-7; agonist NPY, max 10 μM
T1 construct: expressed in transfected cells; host or cells: COS-7
T1 sequence (Q15761 1-445): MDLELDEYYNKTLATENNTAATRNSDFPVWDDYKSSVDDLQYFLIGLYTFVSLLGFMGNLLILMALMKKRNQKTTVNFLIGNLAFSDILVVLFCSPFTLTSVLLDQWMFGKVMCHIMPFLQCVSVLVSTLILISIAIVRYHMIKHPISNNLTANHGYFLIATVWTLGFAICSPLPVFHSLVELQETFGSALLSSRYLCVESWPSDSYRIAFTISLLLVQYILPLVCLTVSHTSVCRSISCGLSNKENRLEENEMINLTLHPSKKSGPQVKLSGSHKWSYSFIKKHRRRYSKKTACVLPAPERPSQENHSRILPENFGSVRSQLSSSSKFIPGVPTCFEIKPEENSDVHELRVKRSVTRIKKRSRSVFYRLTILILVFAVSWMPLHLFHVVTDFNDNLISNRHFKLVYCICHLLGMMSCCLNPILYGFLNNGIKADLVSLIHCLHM
Summary of the method: (§1)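 COS-7 cells were transiently co-transfected (DEAE-dextran) with GPCR and chimeric G protein cDNA, 1:1 for a single chimera or 8:1:1 GPCR:Gαq/z:Gαq/s for the mix, and assayed two days later. Agonist-evoked Fluo-3 fluorescence was read by FLIPR over 3 min at room temperature.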

h 5HT1E = h 5HT1E (Homo sapiens, UniProt P28566); details: h 5HT1E + chimera in COS-7; agonist 5HT, max 100 μM
Sequence of h 5HT1E (P28566 whole entry): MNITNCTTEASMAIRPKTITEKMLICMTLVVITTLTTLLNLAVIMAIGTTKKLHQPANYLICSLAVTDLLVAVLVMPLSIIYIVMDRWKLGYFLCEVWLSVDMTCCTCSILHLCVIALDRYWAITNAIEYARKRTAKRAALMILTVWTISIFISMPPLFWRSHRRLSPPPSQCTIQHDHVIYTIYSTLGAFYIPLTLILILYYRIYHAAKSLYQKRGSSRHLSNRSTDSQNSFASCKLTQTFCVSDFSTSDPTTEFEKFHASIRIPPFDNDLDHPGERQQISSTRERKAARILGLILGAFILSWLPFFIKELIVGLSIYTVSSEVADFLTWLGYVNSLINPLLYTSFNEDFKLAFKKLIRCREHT
Summary of the method: as §1

r GALR3 = target: T2, r GALR3 (Rattus norvegicus, UniProt O88626); details: r GALR3 + chimera in COS-7; agonist GAL, max 10 μM
T2 sequence (O88626 1-370): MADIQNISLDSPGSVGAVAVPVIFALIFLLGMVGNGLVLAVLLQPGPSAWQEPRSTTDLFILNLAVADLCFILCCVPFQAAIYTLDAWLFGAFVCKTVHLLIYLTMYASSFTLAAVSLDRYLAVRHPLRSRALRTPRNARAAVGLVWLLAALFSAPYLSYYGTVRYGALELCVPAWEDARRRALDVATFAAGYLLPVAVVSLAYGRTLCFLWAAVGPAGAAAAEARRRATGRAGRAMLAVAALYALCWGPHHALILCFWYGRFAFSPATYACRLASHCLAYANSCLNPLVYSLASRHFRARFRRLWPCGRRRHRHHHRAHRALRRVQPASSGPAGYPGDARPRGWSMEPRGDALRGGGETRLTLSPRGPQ
Summary of the method: as §1

h GALR2 = target: T3, h GALR2 (Homo sapiens, UniProt O43603); details: h GALR2 + chimera in COS-7; agonist GAL, max 10 μM
T3 construct: expressed in transfected cells; host or cells: COS-7
T3 sequence (O43603 1-387): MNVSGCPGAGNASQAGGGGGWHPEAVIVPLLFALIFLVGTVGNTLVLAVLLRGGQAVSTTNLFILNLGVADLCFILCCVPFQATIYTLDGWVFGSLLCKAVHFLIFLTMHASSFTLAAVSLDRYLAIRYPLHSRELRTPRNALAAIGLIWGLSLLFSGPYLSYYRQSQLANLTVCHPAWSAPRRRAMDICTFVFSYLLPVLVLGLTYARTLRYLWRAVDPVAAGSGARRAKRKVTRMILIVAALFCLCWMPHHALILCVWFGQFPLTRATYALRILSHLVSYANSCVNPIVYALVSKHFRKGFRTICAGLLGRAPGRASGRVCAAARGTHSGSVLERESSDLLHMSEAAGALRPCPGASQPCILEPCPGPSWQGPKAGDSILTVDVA
Summary of the method: as §1

B1: cGαq/z5: chimeric Gα subunit: C-terminal final 5 amino acids of C. elegans Gαq replaced with those of hGαz (SEQ ID NO: 1) (protein)
chain: MACCLSEEAREQKRINQEIEKQLQRDKRNARRELKLLLLGTGESGKSTFIKQMRIIHGQGYSEEDKRAHIRLVYQNVFMAIQSMIRAMDTLDIKFGNESEELQEKAAVVREVDFESVTSFEEPYVSYIKELWEDSGIQECYDRRREYQLTDSAKYYLSDLRRLAVPDYLPTEQDILRVRVPTTGIIEYPFDLEQIIFRMVDVGGQRSERRKWIHCFENVTSIMFLVALSEYDQVLVECDNENRMEESKALFRTIITYPWFTNSSVILFLNKKDLLEEKILYSHLADYFPEYDGPPRDPIAAREFILKMFVDLNPDADKIIYSHFTCATDTENIRFVFAAVKDTILQHNLKYIGLC
modifications: C. elegans
Q: How did the “MAXIMAL SIGNAL (FLUORESCENCE UNITS)” value (h Y5) turn out when B1 was run?
A: 5314 fluorescence units

Q: And the “MAXIMAL SIGNAL (FLUORESCENCE UNITS)” value (h 5HT1E)?
A: 229 fluorescence units

Q: And the “MAXIMAL SIGNAL (FLUORESCENCE UNITS)” value (r GALR3)?
A: 2298 fluorescence units

Q: And the “MAXIMAL SIGNAL (FLUORESCENCE UNITS)” value (h GALR2)?
A: 5470 fluorescence units

B2: cGαq/z9: C. elegans Gαq with Gαz portion of the C-terminal tail extended to 9 amino acids (SEQ ID NO: 2) (protein)
chain: MACCLSEEAREQKRINQEIEKQLQRDKRNARRELKLLLLGTGESGKSTFIKQMRIIHGQGYSEEDKRAHIRLVYQNVFMAIQSMIRAMDTLDIKFGNESEELQEKAAVVREVDFESVTSFEEPYVSYIKELWEDSGIQECYDRRREYQLTDSAKYYLSDLRRLAVPDYLPTEQDILRVRVPTTGIIEYPFDLEQIIFRMVDVGGQRSERRKWIHCFENVTSIMFLVALSEYDQVLVECDNENRMEESKALFRTIITYPWFTNSSVILFLNKKDLLEEKILYSHLADYFPEYDGPPRDPIAAREFILKMFVDLNPDADKIIYSHFTCATDTENIRFVFAAVKDTILQNNLKYIGLC
modifications: C. elegans
Q: Which “MAXIMAL SIGNAL (FLUORESCENCE UNITS)” value (h Y5) does the source give for B2 here?
A: 6680 fluorescence units

Q: And the “MAXIMAL SIGNAL (FLUORESCENCE UNITS)” value (h 5HT1E)?
A: 238 fluorescence units

Q: And the “MAXIMAL SIGNAL (FLUORESCENCE UNITS)” value (r GALR3)?
A: 2971 fluorescence units

Q: And the “MAXIMAL SIGNAL (FLUORESCENCE UNITS)” value (h GALR2)?
A: 4899 fluorescence units
